Measurements published in PMC3778281.

Molecular target: F8–TNF (murine)
Experiment: SEC

stoichiometry N: 3
Substance: F8–TNF
